Test results taken from paper PMC7213981, “Enhancer architecture sensitizes cell specific responses to Notch gene dose via a bind and discard mechanism” (eLife, 2019).

T1: fly NICD (aa 1763–2412) (Drosophila, UniProt P07207 1763-2412)
T1 construct: Notch intracellular domain, Drosophila, residues 1763-2412; not the full-length NICD; also called Notch intracellular domain
T1 sequence (looked up): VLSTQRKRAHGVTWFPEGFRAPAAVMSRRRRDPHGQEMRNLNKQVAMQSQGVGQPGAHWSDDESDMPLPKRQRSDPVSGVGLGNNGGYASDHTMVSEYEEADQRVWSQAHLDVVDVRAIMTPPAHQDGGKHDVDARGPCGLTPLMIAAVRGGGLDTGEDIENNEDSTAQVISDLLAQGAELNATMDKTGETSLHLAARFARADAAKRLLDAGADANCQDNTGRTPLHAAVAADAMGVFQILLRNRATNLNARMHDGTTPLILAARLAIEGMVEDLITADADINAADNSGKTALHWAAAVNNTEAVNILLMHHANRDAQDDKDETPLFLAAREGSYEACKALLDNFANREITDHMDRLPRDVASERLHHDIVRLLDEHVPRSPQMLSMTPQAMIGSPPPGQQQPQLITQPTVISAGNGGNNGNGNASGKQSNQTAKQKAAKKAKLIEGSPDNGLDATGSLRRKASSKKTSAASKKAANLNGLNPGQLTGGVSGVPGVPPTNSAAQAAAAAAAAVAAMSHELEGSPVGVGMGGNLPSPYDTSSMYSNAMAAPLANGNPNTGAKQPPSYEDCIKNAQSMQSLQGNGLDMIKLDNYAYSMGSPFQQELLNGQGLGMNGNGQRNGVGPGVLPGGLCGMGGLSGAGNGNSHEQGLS

B1: mouse N1ICD (aa 1744–2113) (domain or fragment, UniProt Q01705 1744-2113, looked up)
chain: VLLSRKRRRQHGQLWFPEGFKVSEASKKKRREPLGEDSVGLKPLKNASDGALMDDNQNEWGDEDLETKKFRFEEPVVLPDLSDQTDHRQWTQQHLDAADLRMSAMAPTPPQGEVDADCMDVNVRGPDGFTPLMIASCSGGGLETGNSEEEEDAPAVISDFIYQGASLHNQTDRTGETALHLAARYSRSDAAKRLLEASADANIQDNMGRTPLHAAVSADAQGVFQILLRNRATDLDARMHDGTTPLILAARLAVEGMLEDLINSHADVNAVDDLGKSALHWAAAVNNVDAAVVLLKNGANKDMQNNKEETPLFLAAREGSYETAKVLLDHFANRDITDHMDRLPRDIAQERMHHDIVRLLDEYNLVRSPQ
notes: Notch1 intracellular domain, mouse, residues 1744-2113; not the full-length NICD; also called N1ICD1; NICD
B2: fly Su(H) (aa 98–523) (domain or fragment)
chain: not shown
notes: Suppressor of Hairless, Drosophila, residues 98-523; also called CSL
B3: human MAML1 (aa 1–280) (domain or fragment, UniProt Q92585 1-280, looked up)
chain: MVLPTCPMAEFALPRHSAVMERLRRRIELCRRHHSTCEARYEAVSPERLELERQHTFALHQRCIQAKAKRAGKHRQPPAATAPAPAAPAPRLDAADGPEHGRPATHLHDTVKRNLDSATSPQNGDQQNGYGDLFPGHKKTRREAPLGVAISSNGLPPASPLGQSDKPSGADALQSSGKHSLGLDSLNKKRLADSSLHLNGGSNPSESFPLSLNKELKQEPVEDLPCMITGTVGSISQSNLMPDLNLNEQEWKELIEELNRSVPDEDMKDLFNEDFEEKKD
notes: Mastermind-like protein 1, human, residues 1-280; not the full-length protein; The results list MAML1 among the 'mouse' proteins, the methods say human MAML1; also called Mastermind
B4: fly Mastermind (aa 87–307) (domain or fragment, Drosophila, UniProt P21519 87-307, looked up)
chain: PYNANLGATGGIAGITGGNGAGGPTNPGAVPTAPGDTMPTKRMPVVDRLRRRMENYRRRQTDCVPRYEQAFNTVCEQQNQETTVLQKRFLESKNKRAAKKTDKKLPDPSQQHQQQQHQQQQQHQQHQQHQQAQTMLAGQLQSSVHVQQKFLKRPAEDVDNGPDSFEPPHKLPNNNNNSNSNNNNGNANANNGGNGSNTGNNTNNNGNSTNNNGGSNNNGSE
notes: Mastermind, Drosophila, residues 87-307; not the full-length protein; also called Mam

Experiments:
Experiment in all cases: native gel or EMSA; complexes formed on IRDye-labelled 2xCSL and 1xSPS DNA probes in the same binding reaction; RBPJ/Su(H) 10 to 320 nM, 1 µM NICD/Mastermind; native polyacrylamide gel
Settings in all cases: both partners purified
mouse RBPJ (aa 53–474) = biological target: T2, mouse RBPJ (aa 53–474) (mouse, UniProt P31266 53-474)
T2 construct: RBPJ, mouse, residues 53-474; also called CSL

fly NICD (aa 1763–2412) = biological target: T1, fly NICD (aa 1763–2412)
fly Su(H) (aa 98–523) = biological target: B2
Chain of fly Su(H) (aa 98–523) (P28159 98-523): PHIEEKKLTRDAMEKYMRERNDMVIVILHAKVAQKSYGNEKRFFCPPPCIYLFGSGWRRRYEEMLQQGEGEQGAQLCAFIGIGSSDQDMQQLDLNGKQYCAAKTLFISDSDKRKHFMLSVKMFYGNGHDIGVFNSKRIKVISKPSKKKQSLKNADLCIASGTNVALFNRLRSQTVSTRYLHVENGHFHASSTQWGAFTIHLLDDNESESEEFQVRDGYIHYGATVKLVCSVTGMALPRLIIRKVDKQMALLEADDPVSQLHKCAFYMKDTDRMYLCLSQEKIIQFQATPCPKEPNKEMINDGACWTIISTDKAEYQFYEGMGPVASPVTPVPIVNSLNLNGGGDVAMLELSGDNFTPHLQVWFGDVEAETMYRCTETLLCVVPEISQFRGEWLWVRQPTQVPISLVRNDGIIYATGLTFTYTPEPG

T2 sequence (P31266 53-474): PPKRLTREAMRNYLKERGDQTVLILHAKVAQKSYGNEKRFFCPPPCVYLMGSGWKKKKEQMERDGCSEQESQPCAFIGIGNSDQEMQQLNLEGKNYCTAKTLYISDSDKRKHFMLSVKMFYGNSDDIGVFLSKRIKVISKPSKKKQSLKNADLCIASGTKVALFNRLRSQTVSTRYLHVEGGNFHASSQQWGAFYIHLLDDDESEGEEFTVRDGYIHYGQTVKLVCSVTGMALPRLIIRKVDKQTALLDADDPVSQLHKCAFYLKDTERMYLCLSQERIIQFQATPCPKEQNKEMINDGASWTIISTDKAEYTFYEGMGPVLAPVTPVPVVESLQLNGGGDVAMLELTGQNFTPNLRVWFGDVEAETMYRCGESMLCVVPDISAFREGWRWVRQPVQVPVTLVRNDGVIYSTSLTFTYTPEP

Binder | binding result (mouse RBPJ (aa 53–474)) | also measured
B1 | binds | –
B2 | – | binding result (fly NICD (aa 1763–2412)): binds
B3 | binds | –
B4 | – | binding result (fly Su(H) (aa 98–523)): binds
